Reference: US20190225703A1 (INNATE PHARMA, published 2019)
Where a chain is given by its changes, count along the chain named.

Tests used:
human CD73 mutant 5 = target: T1, human CD73 mutant 5 (human, UniProt P21589 27-549); assay: flow cytometry titration on HEK-293T cells transfected with CD73 mutant 5
T1 construct: Transfected in HEK-293T cells
T1 chain: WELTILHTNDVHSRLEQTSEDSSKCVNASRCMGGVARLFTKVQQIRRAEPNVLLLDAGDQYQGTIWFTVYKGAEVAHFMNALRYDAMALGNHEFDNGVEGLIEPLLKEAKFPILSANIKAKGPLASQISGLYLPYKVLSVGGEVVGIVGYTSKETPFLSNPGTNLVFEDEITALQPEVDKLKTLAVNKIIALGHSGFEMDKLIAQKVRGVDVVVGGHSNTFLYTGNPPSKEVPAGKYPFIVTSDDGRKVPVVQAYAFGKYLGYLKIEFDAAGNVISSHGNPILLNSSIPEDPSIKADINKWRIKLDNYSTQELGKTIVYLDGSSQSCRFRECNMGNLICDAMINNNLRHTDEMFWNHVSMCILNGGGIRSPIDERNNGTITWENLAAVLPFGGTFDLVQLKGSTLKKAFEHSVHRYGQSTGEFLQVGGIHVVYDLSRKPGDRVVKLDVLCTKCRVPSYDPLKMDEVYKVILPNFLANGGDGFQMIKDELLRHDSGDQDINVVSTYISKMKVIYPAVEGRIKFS

[1] = target: T2, human CD73 (ecto-5'-nucleotidase) expressed at the cell surface (human, UniProt P21589 27-549); assay: flow cytometry titration on human-CD73-expressing cell line
T2 construct: Used for huCD73-expressing recombinant cell lines, MDA-MB-231 cells (endogenous CD73), HEK-293T cells with wild type CD73, and primary T and B cells; also called huCD73; wild type CD73
T2 sequence: T1 chain with S139P, G142D, A185N, A270E, A271R
Description: (§1) 10⁵ cells resuspended in PBS/0.2% BSA/0.02% NaN3 (named “staining buffer”) are distributed into round bottom 96W-microplates. Dose-range of anti-CD73 antibodies was added to the plates and cells are incubated for 45 min at 4° C. Cells were washed three times in staining buffer by spinning plates at 400 g for 3 min at 4° C. PE-coupled goat anti-mouse or goat anti-human IgG Fc fragment secondary antibodies (Beckman Coulter) diluted in staining buffer were added to the cells and plates are incubated for 30 additional minutes at 4° C. Cells were washed three times as described above and analyzed on an Accury C6 flow cytometer equipped with an HTFC plate reader.
(§2) Median of fluorescence vs. antibodies concentration was plotted on graphs and EC50 is calculated using GraphPad Prism program.

[2] = target: T2, human CD73 (ecto-5'-nucleotidase) …; assay: flow cytometry titration on HEK-293T cells transfected with wild type human CD73
Description: (§3) Anti-CD73 antibodies are tested for their binding to each mutant by flow cytometry. A first experiment is performed to determine antibodies that lose their binding to one or several mutants at one concentration. To confirm a loss of binding, titration of antibodies is done on antibodies for which binding seemed to be affected by the CD73 mutations (1-0.1-0.01-0.001 μg/ml).

human CD73 mutant 4 = target: T3, human CD73 mutant 4 (human, UniProt P21589 27-549); assay: flow cytometry titration on HEK-293T cells transfected with CD73 mutant 4
T3 construct: Transfected in HEK-293T cells
T3 chain: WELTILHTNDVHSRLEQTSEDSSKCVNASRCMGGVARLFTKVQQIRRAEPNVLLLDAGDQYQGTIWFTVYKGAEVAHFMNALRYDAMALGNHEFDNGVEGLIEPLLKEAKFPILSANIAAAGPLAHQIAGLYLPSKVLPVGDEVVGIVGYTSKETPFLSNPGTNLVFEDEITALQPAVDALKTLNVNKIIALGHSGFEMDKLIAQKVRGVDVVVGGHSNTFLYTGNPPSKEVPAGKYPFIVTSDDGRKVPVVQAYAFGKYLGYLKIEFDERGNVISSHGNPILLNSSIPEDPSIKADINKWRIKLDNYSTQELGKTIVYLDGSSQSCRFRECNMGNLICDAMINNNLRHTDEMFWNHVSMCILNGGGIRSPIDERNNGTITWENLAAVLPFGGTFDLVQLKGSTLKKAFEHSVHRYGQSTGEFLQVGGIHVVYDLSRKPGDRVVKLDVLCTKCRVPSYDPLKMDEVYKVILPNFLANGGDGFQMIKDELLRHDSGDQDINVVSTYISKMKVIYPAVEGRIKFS
Description: as §3

human CD73 mutant 3 = target: T4, human CD73 mutant 3 (human, UniProt P21589 27-549); assay: flow cytometry titration on HEK-293T cells transfected with CD73 mutant 3
T4 construct: Transfected in HEK-293T cells
T4 chain: T1 chain with A73S, E103A, K107A, E108N, A109S, S139P, G142D, A185N, A270E, A271R

[3] = target: T2, human CD73 (ecto-5'-nucleotidase) …; assay: flow cytometry titration on MDA-MB-231 cells, endogenous CD73
Description: as §1, §2

[4] = target: T5, cynomolgus CD73 expressed at the cell surface (cynomolgus); assay: flow cytometry titration on cynomolgus-CD73-expressing cell line
T5 construct: whole, on cells; Recombinant cell line expressing cynomolgus CD73; also called cynoCD73
Description: as §1, §2

human CD73 mutant 2 = target: T6, human CD73 mutant 2 (human, UniProt P21589 27-549); assay: flow cytometry titration on HEK-293T cells transfected with CD73 mutant 2
T6 construct: Transfected in HEK-293T cells; The cell prints A1071, read as A107I
T6 chain: T1 chain with Q44S, R47A, A48E, A81I, R83G, S139P, G142D, A185N, A270E, A271R
Description: as §3

[5] = target: T7, mouse CD73 expressed at the cell surface (mouse, UniProt Q61503 29-551); assay: flow cytometry titration on a cell line expressing mouse CD73
T7 construct: whole, on cells; Recombinant cell line expressing mouse CD73; also called moCD73
T7 sequence (looked up): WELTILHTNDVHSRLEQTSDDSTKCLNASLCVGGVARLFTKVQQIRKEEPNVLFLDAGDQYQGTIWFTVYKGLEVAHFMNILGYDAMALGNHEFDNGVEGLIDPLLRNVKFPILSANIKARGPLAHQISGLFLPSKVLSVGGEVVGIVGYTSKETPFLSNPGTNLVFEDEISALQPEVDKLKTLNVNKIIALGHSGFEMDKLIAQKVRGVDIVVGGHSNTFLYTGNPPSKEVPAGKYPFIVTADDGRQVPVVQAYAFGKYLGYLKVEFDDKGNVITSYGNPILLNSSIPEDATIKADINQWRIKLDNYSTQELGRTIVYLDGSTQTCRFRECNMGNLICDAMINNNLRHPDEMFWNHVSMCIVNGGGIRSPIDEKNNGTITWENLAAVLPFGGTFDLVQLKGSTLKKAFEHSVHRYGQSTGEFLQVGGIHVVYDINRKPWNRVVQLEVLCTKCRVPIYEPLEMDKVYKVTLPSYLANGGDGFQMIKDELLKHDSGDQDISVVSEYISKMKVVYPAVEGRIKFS
Description: as §1, §2

[6] = target: T8, recombinant human CD73-His extracellular domain protein, soluble dimer (human, UniProt P21589 27-547); assay: SPR (Biacore T100, 25 °C), antibody captured on Protein-A, soluble dimeric CD73 injected 1.23 to 300 nM, 1:1 kinetic model, bivalent affinity
T8 construct: also called huCD73 protein; human recombinant soluble dimeric CD73
T8 sequence: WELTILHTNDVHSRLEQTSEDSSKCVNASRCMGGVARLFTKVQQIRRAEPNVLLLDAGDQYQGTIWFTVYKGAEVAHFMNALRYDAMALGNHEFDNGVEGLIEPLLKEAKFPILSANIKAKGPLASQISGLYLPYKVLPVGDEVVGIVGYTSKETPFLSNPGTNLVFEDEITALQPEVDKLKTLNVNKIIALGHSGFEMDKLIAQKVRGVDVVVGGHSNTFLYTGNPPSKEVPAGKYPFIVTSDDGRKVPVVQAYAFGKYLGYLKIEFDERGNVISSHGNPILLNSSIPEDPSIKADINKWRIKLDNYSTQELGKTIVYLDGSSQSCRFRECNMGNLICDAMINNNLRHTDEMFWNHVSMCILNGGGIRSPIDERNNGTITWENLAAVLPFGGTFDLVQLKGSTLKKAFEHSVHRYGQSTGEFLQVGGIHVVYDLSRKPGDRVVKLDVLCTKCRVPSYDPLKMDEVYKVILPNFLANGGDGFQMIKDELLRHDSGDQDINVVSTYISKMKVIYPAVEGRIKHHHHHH
Description: SPR measurements were performed on a Biacore T100 apparatus (Biacore GE Healthcare) at 25° C. In all Biacore experiments HBS-EP+(Biacore GE Healthcare) and NaOH 10 mM served as running buffer and regeneration buffer respectively. Sensorgrams were analyzed with Biacore T100 Evaluation software. Protein-A was purchase from (GE Healthcare). Human soluble dimeric CD73 proteins were cloned, produced and purified at Innate Pharma.
Protein-A proteins were immobilized covalently to carboxyl groups in the dextran layer on a Sensor Chip CMS. The chip surface was activated with EDC/NHS (N-ethyl-N′-(3-dimethylaminopropyl) carbodiimide hydrochloride and N-hydroxysuccinimide (Biacore GE Healthcare). Protein-A was diluted to 10 μg/ml in coupling buffer (10 mM acetate, pH 5.6) and injected until the appropriate immobilization level was reached (i.e. 2000 RU). Deactivation of the remaining activated groups was performed using 100 mM ethanolamine pH 8 (Biacore GE Healthcare).
Affinity study was carried out according to a standard Capture-Kinetic protocol recommended by the manufacturer (Biacore GE Healthcare kinetic wizard). Serial dilutions of human recombinant soluble dimeric CD73 proteins, ranging from 1.23 to 300 nM were sequentially injected over the captured anti-CD73 antibodies and allowed to dissociate for 10 min before regeneration. […]

B1: antibody AD2 (Biolegend Corp, product ref. 344004) (antibody, V domains shown)
VH: EVQLQQSGAELVKPGASVKLSCTASGFNIKDTYIHWVKQRPEQGLEWIGRIDPATGNTEYDPKFQGKATITADTSSNTAYLHLSSLTSEDTAVYYCARGYYGSSYPPWFAYWGQGTLVTVS
VL: DIVMTQSHKFMSTSVGDRVSITCKASQDVGSAVAWYQQKPGQSPKLLIYWASTRHTGVPDRFTGSGSGTDFTLTISNVQSEDLADYFCQQYSSYPLTFGAGTKLELK
- EC50 (read off the curve) (human CD73 mutant 5): ~0.07 µg/mL
- EC50 [1]: 0.743 µg/mL
- fold higher concentration (EC50) than 7H10 [1]: ~4 fold
- EC50 (read off the curve) [2]: ~0.2 µg/mL
- EC50 (read off the curve) (human CD73 mutant 4): ~0.06 µg/mL
- EC50 (read off the curve) (human CD73 mutant 3): ~0.1 µg/mL
- EC50 [3]: 0.431 µg/mL

B2: antibody 12F9 (antibody, human IgG1, V domains shown)
VH: QVQLQQSGPELVKPGASVRISCKASGYTFTNYYIHWVKQRPGQGLEWIGWIYPGNVNTKYNEKFKGKATLTADKSSNTAYMQLSSLTSEDSAVYFCAREGGYDRYALDYWGQGTSVTVSS
VL: QIVLTQSPALMSASPGEKVTMTCSASSSVSYMYWYQQKPRSSPKPWIYLTSNLASGVPARFSGSGSGTSYSLTISSMEAEDAATYYCQQWSSNPLTFGAGTKLELK
- EC50 [1]: 0.137 µg/mL
- EC50 (read off the curve) [2]: ~0.2 µg/mL
- EC50 [4]: 0.527 µg/mL
- EC50 (read off the curve) (human CD73 mutant 2): ~0.2 µg/mL
- binding result [5]: no binding (tested: 10 µg/ml)
- Kd [6]: 0.938 nM
- EC50 [3]: 0.036 µg/mL
